Where only a bound is given, the exact number is not on record here.

For one assay, the target named is M13/HRP antibody. The experiment in a line: depletion of M13/HRP antibody (0.45-9.0 µg/mL) from the supernatant by pSDLBA3b cells, TMB read-out, Langmuir linear regression.
Assay [1] concerns the target Alexa Fluor 488 conjugated rabbit anti-mouse antibody (Invitrogen; A-11059). The experiment in a line: flow cytometry with Alexa Fluor 488 rabbit anti-mouse antibody after 30 min in simulated gastric juice (pepsin, pH 2.0 or 4.0), against incubation at pH 7.0.
Assay [2] has the same target. The assay is described as follows: flow cytometry, 2 µg Alexa Fluor 488 rabbit anti-mouse antibody on Sdlba3b-expressing L. lactis cells; control cells (pNZ8148) 2.26. In general terms: Flow cytometry measures light scatter and fluorescence of single cells or particles in a stream.

Regarding “Sdlba3b fusion protein (encoded by pSDLBA3b), immunoglobulin-binding B domain displayed on the surface of L. lactis (from UniProt P38507 212-269)”, the maximum amount of adsorbed antibody (µg per 1×10^8 cells) with M13/HRP antibody is 0.146. Moreover, the loss of fluorescence intensity in assay [1] is less than 14%. This substance had a mean fluorescence intensity in assay [2] of 151.

The values are drawn from patent US20120282700A1.
